Experimental data as given in patent EP4428145A1, “ANTIBACTERIAL PEPTIDE” (Sumitomo Chemical Company, Limited, priority 2021, dated 2024).
Primed or numbered codes have the meaning given here. Where no end group is shown, it is not given here. [ ]: non-standard residue; d: D form. Dhb′ = not defined here; Dha = C=C(N)C(=O)O

What was measured:
Type in all cases: cell-based, Lactobacillus sakei
L. sakei [1] = assay: Wide pH-range stability test, antimicrobial activity after pH treatment, spot-on-lawn (Experiment 6); design: key to Antimicrobial activity after pH treatment / Antimicrobial activity, Untreated: -: Without antimicrobial activity; +: With antimicrobial activity; ++: With strong antimicrobial activity; +++: With very strong antimicrobial activity; details: for Antimicrobial activity after pH treatment: 30°C
Protocol: (§1) Like in Experiment 1A, antimicrobial activity of the antimicrobial peptide was evaluated by a spot-on-lawn method. As the test bacteria, Lactobacillus sakei (NBRC15893) was used. After overnight culturing, the test bacteria were mixed and diluted with Lactobacilli AOAC agar so as to achieve a density of 4×10^7 CFU/mL, and the resultant was spread over an MRS plate containing 2% agar. The test liquid was spotted on the test bacteria, and incubated overnight at 30°C. The size of the growth inhibition circle of L. sakei was evaluated as the antimicrobial activity.
Each peptide was redissolved and prepared in the following buffer; Sodium acetate-acetic acid (50 mM, pH4.0), Sodium phosphate (50 mM, pH7.4), glycine-NaOH (50 mM, pH10.0). The test solution thus prepared at the above-specified pH was incubated at 30°C. The duration of the incubation was 0 hours, 0.5 hours, 2 hours, 4 hours, 6 hours, and 24 hours, and at the completion of the incubation, TFA was added in a final concentration of 0.2%. […] By the same spot-on-lawn method as adopted in the above-mentioned antimicrobial activity test, the polypeptide was added in drops to form a growth inhibition circle of L. sakei, and thereby the antimicrobial activity of the polypeptide after pH treatment was evaluated. As a positive control (PC), culture supernatant of a nisin A-producing lactic acid bacterium (Lactococcus lactis ATCC-11454 strain) was used. A sample that was prepared solely with a 0.2% TFA aqueous solution was used as an untreated control.
(§2) Nisin A used in Examples was Nisin from Lactococcus lactis 2.5% (manufactured by Sigma-Aldrich corporation) that was used after concentration and purification. The details of nisin A are as described by J. C. Slootweg et al., J. Pept. Sci., 19, 692-699(2013). To 1 g of commercially available 2.5% nisin A (containing about 25 mg of nisin A), 25 mL of water was added, and the resultant was stirred for 15 minutes at room temperature. Centrifugation (15 minutes, 2500 rpm) was carried out to separate off the precipitate, and only the supernatant was transferred to another tube. To the resulting solution, 20 mL of dichloromethane was added. To collect the white precipitate that was present between the aqueous layer and the organic layer, the upper layer and the lower layer were removed. Another round of centrifugation (15 minutes, 2500 rpm) was carried out to remove, again, the upper layer and the lower layer. The intermediate layer that was sought after was dried in a reduced-pressure centrifuge and re-dissolved in 7.45 mL of water, and thereby a 1-mM purified Nisin product was obtained. The resulting purified product was used as nisin A in each stability test.

L. sakei [2] = assay: Thermal stability test, antimicrobial activity after heat treatment, spot-on-lawn (Experiment 7); design: key to Antimicrobial activity after heat treatment / Antimicrobial activity, Untreated: -: Without antimicrobial activity; +: With antimicrobial activity; ++: With strong antimicrobial activity; +++: With very strong antimicrobial activity; details: for thermal stability of antimicrobial activity: result in words
Protocol: as §1, §2
The test solution was subjected to heat treatment at 80°C for 10 minutes, or at 80°C for 30 minutes, or at 100°C for 10 minutes, or at 100°C for 30 minutes, or at 121°C for 15 minutes. By the same spot-on-lawn method as adopted in the above-mentioned antimicrobial activity test, the polypeptide was added in drops to form a growth inhibition circle of L. sakei, and thereby the antimicrobial activity of the polypeptide after heat treatment was evaluated. As a positive control (PC), culture supernatant of a nisin A-producing lactic acid bacterium (Lactococcus lactis ATCC-1 1454 strain) was used. A sample without the heat process was used as an untreated control.

L. sakei [3] = assay: Oxidation stability test, antimicrobial activity after hydrogen peroxide treatment, spot-on-lawn (Experiment 8); design: key to Antimicrobial activity, Before oxidation treatment / Antimicrobial activity, After oxidation treatment: -: Without antimicrobial activity; +: With antimicrobial activity; ++: With strong antimicrobial activity; +++: With very strong antimicrobial activity; details: for Antimicrobial activity, After oxidation treatment: 1-mM solution treated with 10 mM hydrogen peroxide at 40°C for 6 hours
Protocol: as §1, §2
The method of oxidation treatment is as described by Toshihiro T. et al., J. Proteome Res., 12, 753-762(2013). To a 1-mM solution of lactobacin A or nisin A, hydrogen peroxide was added to achieve a final concentration of 10 mM, followed by reaction at 40°C for 6 hours. After the completion of reaction, the reaction liquid was diluted with water to achieve a polypeptide concentration of 10 µM or 1 µM. By the same spot-on-lawn method as adopted in the above-mentioned antimicrobial activity test, the polypeptide was added in drops to form a growth inhibition circle of L. sakei, and thereby the antimicrobial activity of the polypeptide after oxidation treatment was evaluated. Development of the oxidation reaction was calculated as a relative value of the peak area obtained by LC/MS measurement of the oxidation-treated test solution relative to the non- oxidation-treated test solution. As a positive control (PC), culture supernatant of a nisin A-producing lactic acid bacterium (Lactococcus lactis ATCC-11454 strain) was used.

nisin A (I[Dhb′]SI[Dha]LCTPGCKTGALMGCNMKTATCHCSIHV[Dha]K; thioether (positions not given here); not fully specified (some residues, bridges); also: lanthionine thioether crosslinks and dehydro residues, not placed; UniProt P13068 24-57, looked up) [Nisin from Lactococcus lactis 2.5% (Sigma-Aldrich) used after concentration and purification; known antimicrobial peptide]
++: Antimicrobial activity after pH treatment (L. sakei [1]; 10 µM, pH 4.0, 0 hr) | Antimicrobial activity after pH treatment (L. sakei [1]; 10 µM, pH 4.0, 0.5 hr) | Antimicrobial activity after pH treatment (L. sakei [1]; 10 µM, pH 4.0, 2 hr) | Antimicrobial activity, Untreated (L. sakei [1]; 10 µM, untreated control prepared solely with 0.2% TFA aqueous solution) | Antimicrobial activity, Untreated (L. sakei [2]; 10 µM, sample without the heat process) | Antimicrobial activity, Before oxidation treatment (L. sakei [3]; 10 µM)
-: Antimicrobial activity after pH treatment (L. sakei [1]; 10 µM, pH 7.4, 0 hr) | Antimicrobial activity after pH treatment (L. sakei [1]; 10 µM, pH 7.4, 0.5 hr) | Antimicrobial activity after pH treatment (L. sakei [1]; 10 µM, pH 7.4, 2 hr) | Antimicrobial activity after pH treatment (L. sakei [1]; 10 µM, pH 7.4, 4 hr) | Antimicrobial activity after pH treatment (L. sakei [1]; 10 µM, pH 7.4, 6 hr) | Antimicrobial activity after pH treatment (L. sakei [1]; 10 µM, pH 7.4, 24 hr) | Antimicrobial activity after pH treatment (L. sakei [1]; 10 µM, pH 10.0, 0 hr) | Antimicrobial activity after pH treatment (L. sakei [1]; 10 µM, pH 10.0, 2 hr) | Antimicrobial activity after pH treatment (L. sakei [1]; 10 µM, pH 10.0, 4 hr) | Antimicrobial activity after pH treatment (L. sakei [1]; 10 µM, pH 10.0, 6 hr) | Antimicrobial activity after pH treatment (L. sakei [1]; 10 µM, pH 10.0, 24 hr) | Antimicrobial activity after heat treatment (L. sakei [2]; 10 µM, 80°C 30 min) | Antimicrobial activity after heat treatment (L. sakei [2]; 10 µM, 100°C 10 min) | Antimicrobial activity after heat treatment (L. sakei [2]; 10 µM, 100°C 30 min) | Antimicrobial activity after heat treatment (L. sakei [2]; 10 µM, 121°C 15 min) | Antimicrobial activity, After oxidation treatment (L. sakei [3]; diluted to 1 µM) | Antimicrobial activity, After oxidation treatment (L. sakei [3]; diluted to 10 µM)
retained its activity: thermal stability of antimicrobial activity (L. sakei [2]; heat treatment at 80°C for 10 minutes)
lost its antimicrobial activity: pH stability of antimicrobial activity (L. sakei [1]; result in words, neutral range and alkaline range) | thermal stability of antimicrobial activity (L. sakei [2]; any heat treatment beyond 80°C for 10 minutes) | oxidation stability of antimicrobial activity (L. sakei [3]; result in words, after oxidation treatment with 10-mM hydrogen peroxide)
+: Antimicrobial activity after pH treatment (L. sakei [1]; 10 µM, pH 4.0, 4 hr) | Antimicrobial activity after pH treatment (L. sakei [1]; 10 µM, pH 4.0, 6 hr) | Antimicrobial activity after pH treatment (L. sakei [1]; 10 µM, pH 4.0, 24 hr) | Antimicrobial activity after pH treatment (L. sakei [1]; 10 µM, pH 10.0, 0.5 hr) | Antimicrobial activity after heat treatment (L. sakei [2]; 10 µM, 80°C 10 mm) | Antimicrobial activity, Before oxidation treatment (L. sakei [3]; 1 µM)
